Experimental data published in patent publication US20240409645A1.

T1: mouse IL-2Rβ (mouse) (UniProt P16297)
T1 sequence (looked up): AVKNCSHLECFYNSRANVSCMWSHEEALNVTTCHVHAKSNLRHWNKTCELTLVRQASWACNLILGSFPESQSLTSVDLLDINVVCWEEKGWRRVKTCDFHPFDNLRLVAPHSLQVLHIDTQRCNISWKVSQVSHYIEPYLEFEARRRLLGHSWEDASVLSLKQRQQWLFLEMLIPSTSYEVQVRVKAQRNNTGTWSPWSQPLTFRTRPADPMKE


molecular target: T1, mouse IL-2Rβ (mouse); assay: P.E. binding ELISA on coated protein

P.E. binding ELISA OD [OD450 nm] | Binder
0.049 | FJ1427_P035MP03F01 (VHH) VHH: QVQLVESGGGLVQVGGSLRVSCAASGRTSGDRNMGWFRQAPGKEREFVGIITWSSGSTVYADSVKGRFTISRDNAKNTVYLDMSSLKPEDTAVYYCAADYYPYSGSWNIMDYWGKGTLVTVSS
0.052 | FJ1427_P035MP03A02 (VHH) VHH: QVQLVESGGGLVQAGGSLRLSCAASGGTFSSYAMGWFRQAPGKEREFVAATTRGGGRTMYAVSTEGRFTCSRDNAENTVYLQMNSLKPEDTAIYYCAAMTSYYSGTYYPDSSDFDIWGQGTQVTVSS
0.049 | FJ1427_P035MP03G01 (VHH) VHH: EVQLVESGGGLVQAGGSLRLSCAASGGTFSSYAMGWFRQAPGKEREFVAATTRGGGRTMYAVSTEGRFTCSRDNAKNTVYLLMNRVKPEDTAVYYCAARTSYYSGTYYPASSDFDIWGQGTQVTVSS
0.051 | FJ1427_P035MP03H01 (VHH) VHH: QVQLVESGGGSVQTGGSLRLSCVVSGSHFISDVMGWYRQVPGKQRELVADMADGGSAKYADSVKGRFTILRDSVKNTVTLQMSSLNPEDTGVYYCKAGLWITGRHSDYWGQGTQVTVTS
0.049 | FJ1427_P035MP02H11 (VHH) VHH: EVQLVESGGGLVQAGGSLRLSCAASGRTFSTTEMGWFRQAPGKEREFVAAITWTGRGTMYAESVEGRFTISRENAKNMVYLQMNSLKPEDTAIYYCAAARRGRAAVRSEGGYDFWGQGTQVAVSS
0.047 | FJ1427_P035MP02F11 (VHH) VHH: EVQLVESGGGLVQAGGSLRLSCAASGRDFSSYAMGWFRQAPGKEREFVVAITWTKRSTDFPDSVKGRFTISRDNAKNTVYLDMNSLKPEDTAVYYCASARGLPVTPLGDIIYWGEGTLVTVSS
0.049 | FJ1427_P035MP02G11 (VHH) VHH: QLQLVESGGGLVQAGGSLRLSCAASGRDFSSYAMGWFRQAPGKEREFVVAITWTKRSTDFPDSVKGRFTISRDNAKNTVYLDMNSLKPEDTAVYYCASARGLPVTPLGDIIYWGEGTLVTVSS
0.068 | FJ1427_P035MP03B02 (VHH) VHH: EVQLVESGGGLVQVGDSLRLSCAASGRTVGSANMGWFRQAPGKEREFVAVITWSTGSTVYADSVKGRFTISRDNAKNTVYLDMSSLKPDDTAVYYCAADVYPYSGNLNIMDYWGKGTLVTVSS

The next lines start with the binder.

Binder | P.E. binding ELISA OD [OD450 nm]
FJ1427 P035MP02B12 (VHH) VHH: QVQLVESGGGLVQAGGSLRLSCAASGRADSNAIMAWFRQAPGKEREFIVAVTYSGMPTYQDDSVQGRFTASRDNAKNTVYLQMNSLKPEDTAVYYCAARMYSASTYYGDYDYWGQGTQVTVSS | 0.048
FJ1427_P035MP02C12 (VHH) VHH: EVQLVESGGGSVQAGGSLRLSCAASGRTFSDYTMGWFRQAPGKEREFVVAITGTGHTTDMPDSVEGRFTISRDNAKNTIYLDMKNLKPGDTAVYYCASARGLPVTPLGDIIYWGEGTLVTVSS | 0.047
FJ1427 P035MP03E01 (VHH) VHH: QVQLVESGGGLVQAGGSLRLSCAASGGTFSSYAMGWFRQAPGKEREFVAATTRGGGRTMYAVSTEGRFTCSRDNAKNTVYLLMNSLKPEDTAVYYCAAMTSYYSGTYYPDSSDFDIWGQGTQVTVSS | 0.049
FJ1427 P035MP03B01 (VHH) VHH: QVQLVESGGGLVQAGGSLRLSCAASGFTFSNYAMSWVRQAPGKGLEWVSSITGFGRGTDYADSVKGRFTISRDNAKNTLYLQMNSLKPEDTAVYYCARYSSSTYYPPTPARGTDYRGQGTQVTVSS | 0.05
FJ1427 P035MP03D01 (VHH) VHH: QVQLVESGGGLVQPGGSLGLSCAASGFTFDNYAMSWVRQAPGKGLEWVSSITGAGRGTHYADSVKGRFTISRDNAKNTLYLQMNSLKPEDTAVYYCAKYSSSTYYPPTPARGTDYRGPGTQVTVSS | 0.048
FJ1427_P035MP02E12 (VHH) VHH: QVQLQESGGGLVQAGGSMRLSCAASGRTFSNYVIAWFRQAPGKEREFVGAITQTGRGTFYASSVEGRFTLSRLNDQSTVYLQMNSLNPEDTGVYYCSAPRSGRAGTRNQMDYEYWGQGTQVTVSS | 0.048
FJ1427 P035MP02A12 (VHH) VHH: QVQLQESGGGLVQAGGSLRLSCAVSGRSFRNYVMGWFRQAPGREREIVAGITQFTSTTYYDDSVKGRFTISRDNAKNTVYLQMNSLKPEDTALYYCAADRSIKMTADWAYWGQGTQVTVSS | 0.047
FJ1427_P035MP02D12 (VHH) VHH: QVQLVESGGGLVQAGGSLTLSCAASGGAFSSDAKAWFRQAPGKEREFVAAITWAGRGTDYADSVKGRFTITRDNAKATVHLQMNSLKPEDTAVYYCALNPRGVIGPAFRNSNHYTYWGQGTQVTVSS | 0.046
FJ1427 P035MP02F12 (VHH) VHH: QLQLVESGGGLVQTGTSLRLSCAASGHTSRINAMGWFRQFPGKEREFVAAISRNGGSTVYVDSVKGRFTISRDNAKSTVYLQMNSLKPEDTAVYYCTATDAVGWTTRWMTADFGFWGQGTQVTVSS | 0.048

molecular target: T1, mouse IL-2Rβ (mouse); assay: P.E. ELISA, coated protein

P.E. binding ELISA OD [OD450 nm] | Binder
0.051 | FJ1427_P035MP02H01 (VHH) VHH: QVQLVESGGGLVQPGGSLGLSCAASGFTFDNYAMSWVRQAPGKGLEWVSSITGAGRGTHYADSVKGRFTISRDNAKNTLYLQMNSLKPEDTAVYYCAKYSSSTYYPPTPARGTDYRGPGTQVTVSS
0.048 | FJ1427_P035MP02F01 (VHH) VHH: EVQLVESGGGLVQTGGSLRLSCAVSGSRFISDVMGWYRQVPGKQRELVADMADGGSAKYADSVKGRFSILRDSVKNTVYLQMSSLKPEDTGIYYCKAGLWIAGRHSDYWGQGTQVTVSS
0.049 | FJ1427_P035MP02G01 (VHH) VHH: QVQLVESGGGLVQTGGSLRLSCAVSGSRFISDVMGWYRQVPGKQRELVADMADGGSAKYADSVKGRFSILRDSAKNTVYLQMSSLKPEDTGIYYCKAGLWIAGRHSDYWGQGTQVTVSS

Continued, binder first:

Binder | P.E. binding ELISA OD [OD450 nm]
FJ1427_P035MP02D03 (VHH) VHH: QVQLVESGGGLVQAGGPLRLSCAASGGTFSSYAMGWFRQAPGKEREFVAATTRGGGRTMYAVSTEGRFTCSRDNAKNTVYLLMNSLKPEDTAVYYCAAMTSYYSGTYYPDSSDFDIWGQGTQVTVSS | 0.048
FJ1427_P035MP02A02 (VHH) VHH: QVQLVESGGGLVQPGGSLRLSCAASGFTFDNYAMTWVRQAPGKGLEWVSSITGAGRGTHYADSVKGRFTISRDNAKNTLYLQVNSLKPEDTAVYYCARYSSSTYYPTTPVRGTDYRGQGTQVTVSS | 0.049
FJ1427 P035MP02G02 (VHH) VHH: QVQLVESGGGLVQPGGSLRLSCAASGSHFISDVMGWYRQVPGKQRELVADMADGGSVKYGDSVKGRFTILRDSVKNTVTLQMSSLNPEDTGVYYCKAGLWITGRHFDYWGQGIQVTVTS | 0.049
FJ1427_P035MP02B02 (VHH) VHH: EVQLVESGGTLVQTGGSLRLSCVVSGSHFISDVMGWYRQVPGKQRELVADMADGGSAKYGDSVKGRFTIVRDSVKNTVYLQMSSLNPEDTGVYYCKAGLWIKGRHSDYWGQGTQVTVTS | 0.048
FJ1427_P035MP02E01 (VHH) VHH: EVQLVESGGGLVQIGGSLRLSCAASGRTFSSITMAYFRQVPGKEREWVAGINFSGTRTFYADSVKGRFLISRDDAKSTMYLQMNSLKPEDTAVYYCAASPRGFYGPGNALYDYWGQGTQVTVSS | 0.049
FJ1427 P035MP02D02 (VHH) VHH: QVQLVESGGGLVQVGGSLSVSCAASGRSFDSITMAYFRQAPGNEREFIAGINFSGSRTAYGDSVKGRFTISRDNAKNTVFLQMNSLNPEDTAVYYCAASPRGFYGPGHALYDYWGQGTQVTVSS | 0.048
FJ1427 P035MP02D01 (VHH) VHH: QVQLQESGGGLVQTGGSLRLSCAASGSQFINDVMGWYRQVPGKQRELVADMDDTGSTKYADSVKGRFTILRDSVKNTAYLQMSNLKPEDTGVYYCKAGLWIKGRHSDYWGQGTQVTVSS | 0.048
FJ1427 P035MP02E02 (VHH) VHH: EVQLVESGGGLVQTGGSLRLSCAASGSQFINDVMGWYRQVPGKQRELVADMDDTGSTKYADSVKGRFTILRDSVKNTAYLQMSNLKPEDTGVYYCKAGLWIKGRHSDYWGQGTQVTVSS | 0.049
FJ1427_P035MP02A03 (VHH) VHH: QVQLVESGGGLVQPGGSLRLSCAASGFTFSNYAMSWVRQAPGKGLEWVSSITGAGRGTYYAESVKGRFTISRDNDKNTLYLQMNSLKPEDTAVYYCAKYDSSTFYPPTPARGIADRGQGTRVTVSS | 0.048
FJ1427_P035MP02C02 (VHH) VHH: QVQLVESGGGLVQPGGSLRLSCAASGSRFVSDFMGWYRQVPGKQRELVADMADGGSARYGDSVKGRFTILRDNMNSTAFLQMSSLKPEDTGVYYCKAGLWIAGRHFDYWGQGTQVTVSS | 0.048
FJ1427_P035MP02B03 (VHH) VHH: QVQLVESGGGLVQTGGSLRLSCAASGSRFVSDFMGWYRQVPGKQRELVADMADGGSARYGDSVKGRFTILRDSGNSTAYLQMSSLKPEDTGVYYCKAGLWIAGRHFDYWGQGTQVTVSS | 0.048
FJ1427 P035MP02F02 (VHH) VHH: EVQLVESGGGLVQAGGSLRLACALSGDVFVRYTMAWFRQAPGKEREFVASVTDSGRTTDYVASVQGRFTVSRDNNKNTVYLQMNSLKPEDTAVYYCAANTDYFQIRSLDRNTWGQGTQVTVSS | 0.052
